System: peptide library, one residue held at a place counted from the Y acceptor
Assay: relative phosphorylation of the sub-library (ratio to the mean residue at this position); higher = residue favoured
Procedure, shortened: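 In 384-well plates, purified recombinant kinases were incubated for 90 min with 50 μM ATP containing γ-32P-ATP and biotinylated Tyr-centred peptide libraries, each mixture fixing one residue at a single position between −5 and +5. After capture on streptavidin membranes and rinsing, peptides were quantified by phosphorimaging with ImageQuant. Per-position intensities were scaled to the sum of the 18 (Ser/Thr-free library: 16) randomized residues, then multiplied by that number.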

EPHB2, construct: aa611-893, human, sequence (P29323 611-893, looked up): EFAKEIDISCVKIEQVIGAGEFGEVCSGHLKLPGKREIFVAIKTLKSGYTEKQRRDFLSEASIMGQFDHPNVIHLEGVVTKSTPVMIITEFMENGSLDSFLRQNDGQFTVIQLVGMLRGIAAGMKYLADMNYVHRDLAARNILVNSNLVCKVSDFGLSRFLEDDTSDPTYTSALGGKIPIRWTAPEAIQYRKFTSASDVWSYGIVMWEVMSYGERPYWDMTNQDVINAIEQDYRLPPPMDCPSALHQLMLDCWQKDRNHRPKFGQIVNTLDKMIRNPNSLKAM
EPHA8, construct: aa571-924, human, sequence (P29322 571-924, looked up): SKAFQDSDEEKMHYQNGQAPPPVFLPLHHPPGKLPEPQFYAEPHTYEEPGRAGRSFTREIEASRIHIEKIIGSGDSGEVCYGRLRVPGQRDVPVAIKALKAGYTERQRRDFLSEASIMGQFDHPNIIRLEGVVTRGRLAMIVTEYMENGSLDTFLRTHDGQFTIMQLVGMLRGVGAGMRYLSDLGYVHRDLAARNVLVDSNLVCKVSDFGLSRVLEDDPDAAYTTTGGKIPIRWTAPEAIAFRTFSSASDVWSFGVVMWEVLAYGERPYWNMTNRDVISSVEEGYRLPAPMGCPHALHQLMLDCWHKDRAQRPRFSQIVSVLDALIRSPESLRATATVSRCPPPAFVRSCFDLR
EPHB3, construct: aa623-907, human, sequence (P54753 623-907, looked up): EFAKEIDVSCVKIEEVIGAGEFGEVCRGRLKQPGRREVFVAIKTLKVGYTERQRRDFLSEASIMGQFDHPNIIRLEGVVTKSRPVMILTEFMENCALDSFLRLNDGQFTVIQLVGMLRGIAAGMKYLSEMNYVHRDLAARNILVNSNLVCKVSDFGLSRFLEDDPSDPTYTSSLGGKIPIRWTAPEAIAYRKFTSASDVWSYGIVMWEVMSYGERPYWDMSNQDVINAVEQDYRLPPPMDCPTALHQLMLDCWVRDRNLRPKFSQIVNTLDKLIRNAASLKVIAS

EPHA8, construct: aa571-924, human (from UniProt P29322)
relative phosphorylation
Details | at +1 | at +2 | at +3 | at +4 | at +5 | at -1 | at -2 | at -3 | at -4 | at -5
A fixed | 1.46 | 0.773 | 0.757 | 0.81 | 1.11 | 0.454 | 1.15 | 0.671 | 1.11 | 0.971
D fixed | 0.978 | 1.49 | 0.359 | 0.911 | 1.19 | 1.98 | 1.35 | 1.49 | 1.48 | 1.17
E fixed | 2.64 | 1.84 | 0.346 | 1.02 | 1.34 | 2.03 | 1.77 | 2.17 | 1.74 | 1.13
F fixed | 0.777 | 1.38 | 1.62 | 1.22 | 0.934 | 0.855 | 0.708 | 1.42 | 1.07 | 1.02
G fixed | 0.716 | 0.419 | 0.572 | 1.28 | 1.08 | 0.242 | 1.15 | 0.899 | 1.18 | 1.21
H fixed | 0.624 | 0.838 | 0.819 | 1.11 | 1.1 | 0.672 | 0.853 | 1.03 | 0.87 | 1.06
I fixed | 1.68 | 0.884 | 2.9 | 0.857 | 0.617 | 2.9 | 0.735 | 0.849 | 0.845 | 0.956
K fixed | 0.266 | 0.506 | 0.32 | 0.772 | 0.957 | 0.249 | 0.685 | 0.528 | 0.715 | 0.87
L fixed | 0.814 | 0.891 | 1.71 | 0.778 | 0.721 | 1.54 | 0.792 | 0.651 | 0.901 | 0.949
M fixed | 1.37 | 0.786 | 1.23 | 0.944 | 0.855 | 0.698 | 0.559 | 0.833 | 0.843 | 1.02
N fixed | 0.384 | 1.1 | 0.453 | 0.838 | 0.869 | 1.92 | 1.22 | 1.07 | 0.96 | 1.05
P fixed | 0.293 | 0.783 | 1.11 | 1.39 | 1.72 | 0.391 | 1.4 | 0.927 | 0.974 | 1.08
Q fixed | 1.07 | 0.823 | 0.559 | 0.932 | 0.897 | 0.402 | 1.11 | 0.813 | 1.12 | 0.977
R fixed | 0.318 | 0.723 | 0.453 | 1.05 | 1.14 | 0.288 | 0.778 | 0.688 | 0.818 | 0.884
S fixed | 0.849 | 0.886 | 0.485 | 0.822 | 0.943 | 0.422 | 1.14 | 0.958 | 0.838 | 0.834
T fixed | 0.745 | 0.855 | 0.607 | 0.795 | 0.96 | 1.15 | 0.865 | 0.837 | 0.67 | 0.782
V fixed | 1.7 | 0.914 | 2.1 | 0.81 | 0.644 | 1.11 | 0.947 | 0.728 | 0.779 | 0.849
W fixed | 1.32 | 2.12 | 1.59 | 1.65 | 0.932 | 0.693 | 0.778 | 1.44 | 1.1 | 1.19
pThr fixed | 1.94 | 2.25 | 0.437 | 1.02 | 1.1 | 3.17 | 1.26 | 1.04 | 0.986 | 0.968
pTyr fixed | 4.68 | 7.04 | 1.16 | 1.22 | 1.39 | 2.63 | 1.63 | 1.34 | 1.37 | 1.27

EPHB2, construct: aa611-893, human (from UniProt P29323)
relative phosphorylation
Details | at +1 | at +2 | at +3 | at +4 | at +5 | at -1 | at -2 | at -3 | at -4 | at -5
A fixed | 1.72 | 0.968 | 0.884 | 0.898 | 1.16 | 0.485 | 1.16 | 0.764 | 1.06 | 1.02
D fixed | 1.17 | 1.15 | 0.473 | 1.11 | 1.01 | 2.48 | 1.32 | 1.45 | 1.35 | 1.24
E fixed | 2.89 | 1.54 | 0.434 | 1.07 | 1.06 | 1.55 | 1.47 | 1.76 | 1.28 | 0.996
F fixed | 0.59 | 1.27 | 1.36 | 0.922 | 0.937 | 0.938 | 0.635 | 1.33 | 1.11 | 0.972
G fixed | 1.1 | 0.438 | 0.65 | 1.2 | 1.18 | 0.224 | 1.17 | 0.845 | 1.28 | 1.05
H fixed | 0.443 | 0.626 | 1.29 | 1.1 | 0.998 | 0.494 | 0.825 | 0.807 | 0.872 | 0.921
I fixed | 1.23 | 1.39 | 1.72 | 0.817 | 0.889 | 2.02 | 0.77 | 1 | 0.898 | 0.905
K fixed | 0.166 | 0.428 | 0.273 | 0.699 | 0.691 | 0.207 | 0.791 | 0.522 | 0.784 | 0.995
L fixed | 0.752 | 0.958 | 1.31 | 0.864 | 1.06 | 1.85 | 0.769 | 0.927 | 0.963 | 0.946
M fixed | 1.33 | 0.838 | 1.19 | 1.09 | 0.934 | 0.759 | 0.674 | 0.919 | 0.868 | 0.942
N fixed | 0.41 | 0.927 | 0.646 | 0.796 | 0.853 | 2.06 | 1.26 | 1.03 | 0.937 | 1.11
P fixed | 0.171 | 0.732 | 1.27 | 1.16 | 1.46 | 0.343 | 1.33 | 0.945 | 1.09 | 1.19
Q fixed | 1.2 | 0.882 | 0.762 | 0.976 | 0.868 | 0.502 | 1.17 | 0.933 | 1.25 | 1.12
R fixed | 0.22 | 0.618 | 0.433 | 0.771 | 0.756 | 0.245 | 0.749 | 0.603 | 0.802 | 0.96
S fixed | 0.992 | 0.953 | 0.769 | 1.03 | 1.11 | 0.47 | 1.43 | 0.968 | 0.898 | 0.88
T fixed | 0.766 | 1.1 | 0.908 | 0.949 | 1.05 | 1.03 | 0.923 | 0.794 | 0.667 | 0.726
V fixed | 1.77 | 1.78 | 1.92 | 1.02 | 0.934 | 1.48 | 0.878 | 0.928 | 0.851 | 0.957
W fixed | 1.07 | 1.41 | 1.7 | 1.52 | 1.04 | 0.868 | 0.657 | 1.46 | 1.05 | 1.07
pThr fixed | 1.64 | 1.98 | 0.439 | 0.858 | 0.64 | 1.77 | 1.05 | 0.962 | 0.894 | 0.877
pTyr fixed | 1.75 | 4.02 | 0.872 | 1.28 | 1.1 | 2.15 | 1.15 | 1.12 | 1.04 | 1.12

EPHB3, construct: aa623-907, human (from UniProt P54753)
relative phosphorylation
Details | at +1 | at +2 | at +3 | at +4 | at +5 | at -1 | at -2 | at -3 | at -4 | at -5
A fixed | 1.96 | 0.847 | 0.837 | 0.853 | 0.843 | 0.583 | 1.21 | 0.804 | 1.15 | 0.981
D fixed | 1.06 | 0.993 | 0.442 | 1.06 | 1.14 | 2.09 | 1.04 | 1.04 | 1.03 | 0.921
E fixed | 2.6 | 1.33 | 0.413 | 1.16 | 1.15 | 1.38 | 1.29 | 1.19 | 1.39 | 0.842
F fixed | 0.588 | 1.38 | 1.31 | 1.04 | 0.656 | 1.03 | 0.661 | 1.39 | 1.09 | 1.16
G fixed | 1.13 | 0.428 | 0.651 | 1.26 | 1.36 | 0.226 | 1.33 | 1.05 | 1.37 | 1.32
H fixed | 0.573 | 0.91 | 1.57 | 1.19 | 1.12 | 0.638 | 0.9 | 1.05 | 0.899 | 0.933
I fixed | 1.19 | 1.24 | 1.95 | 0.801 | 0.581 | 2.29 | 0.899 | 1.14 | 1.01 | 1.14
K fixed | 0.211 | 0.576 | 0.297 | 0.737 | 1.02 | 0.234 | 0.841 | 0.61 | 0.898 | 0.992
L fixed | 0.732 | 0.974 | 1.39 | 0.821 | 0.613 | 1.87 | 0.83 | 0.912 | 0.959 | 0.98
M fixed | 1.14 | 0.913 | 1.29 | 0.984 | 0.927 | 0.849 | 0.709 | 0.928 | 0.854 | 0.9
N fixed | 0.393 | 1.01 | 0.653 | 0.856 | 1.1 | 2.4 | 1.12 | 1.09 | 0.922 | 1.08
P fixed | 0.157 | 0.739 | 1.26 | 1.54 | 1.46 | 0.415 | 1.32 | 1.12 | 1.06 | 1.06
Q fixed | 1.31 | 0.954 | 0.799 | 1.01 | 1.07 | 0.406 | 1.18 | 0.837 | 1.11 | 0.989
R fixed | 0.278 | 0.768 | 0.468 | 0.855 | 1.32 | 0.239 | 0.896 | 0.722 | 0.84 | 1.03
S fixed | 1 | 0.886 | 0.689 | 0.8 | 1.2 | 0.516 | 1.3 | 1 | 0.82 | 0.869
T fixed | 0.903 | 0.989 | 0.796 | 0.865 | 1.16 | 1.03 | 0.96 | 0.942 | 0.762 | 0.761
V fixed | 1.64 | 1.29 | 1.7 | 0.814 | 0.552 | 1.1 | 0.848 | 0.874 | 0.777 | 0.795
W fixed | 1.12 | 1.77 | 1.49 | 1.36 | 0.723 | 0.697 | 0.672 | 1.31 | 1.05 | 1.26
pThr fixed | 1.34 | 1.82 | 0.32 | 0.825 | 0.763 | 1.63 | 0.847 | 0.897 | 0.873 | 0.831
pTyr fixed | 1.5 | 3.93 | 0.629 | 0.894 | 0.978 | 1.79 | 1.05 | 1.06 | 1.06 | 0.83
